Reference: PMC2605961

Experiments:
Experiment in all cases: EMSA
His-PRH (wild type) = molecular target: T1, His-PRH (wild type) (human, UniProt Q03014 7-270)
T1 sequence: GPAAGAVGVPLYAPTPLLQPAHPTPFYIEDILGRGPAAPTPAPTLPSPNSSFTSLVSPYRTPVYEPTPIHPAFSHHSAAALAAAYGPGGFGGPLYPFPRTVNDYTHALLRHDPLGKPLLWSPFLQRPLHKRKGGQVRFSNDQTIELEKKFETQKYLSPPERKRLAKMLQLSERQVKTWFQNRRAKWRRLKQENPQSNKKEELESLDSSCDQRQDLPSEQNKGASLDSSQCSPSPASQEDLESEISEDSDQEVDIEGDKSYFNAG

His-PRH N187A = molecular target: T2, His-PRH N187A (human, UniProt Q03014 7-270, N187A)
T2 sequence: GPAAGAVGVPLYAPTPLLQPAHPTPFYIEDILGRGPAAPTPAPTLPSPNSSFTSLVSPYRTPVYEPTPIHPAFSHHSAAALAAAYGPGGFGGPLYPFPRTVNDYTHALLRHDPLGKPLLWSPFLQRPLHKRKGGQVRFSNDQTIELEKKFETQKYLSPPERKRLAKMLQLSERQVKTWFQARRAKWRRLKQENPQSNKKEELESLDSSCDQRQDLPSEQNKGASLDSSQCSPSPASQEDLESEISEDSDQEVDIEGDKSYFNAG

His-PRH R188A,R189A = molecular target: T3, His-PRH R188A,R189A (human, UniProt Q03014 7-270, R188A;R189A)
T3 sequence: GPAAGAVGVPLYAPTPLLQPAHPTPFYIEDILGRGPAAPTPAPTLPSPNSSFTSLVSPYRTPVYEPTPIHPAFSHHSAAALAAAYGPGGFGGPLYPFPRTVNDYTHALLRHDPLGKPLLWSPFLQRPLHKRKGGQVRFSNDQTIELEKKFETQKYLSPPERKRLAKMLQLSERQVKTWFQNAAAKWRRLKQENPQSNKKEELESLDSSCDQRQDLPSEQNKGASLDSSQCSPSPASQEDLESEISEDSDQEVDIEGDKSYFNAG

His-PRH F32E = molecular target: T4, His-PRH F32E (human, UniProt Q03014 7-270, F32E)
T4 sequence: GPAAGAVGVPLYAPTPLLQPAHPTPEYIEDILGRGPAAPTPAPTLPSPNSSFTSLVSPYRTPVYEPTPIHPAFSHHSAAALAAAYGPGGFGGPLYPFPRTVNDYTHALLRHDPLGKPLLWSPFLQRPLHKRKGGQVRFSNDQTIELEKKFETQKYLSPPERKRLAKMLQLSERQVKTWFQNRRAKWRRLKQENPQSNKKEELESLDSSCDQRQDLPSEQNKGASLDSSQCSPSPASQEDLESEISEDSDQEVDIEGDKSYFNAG

B1: PRH-binding site oligonucleotide (dsDNA)
DNA 1: GCTTCTGGGAAGCAATTAAAAAATGGCTCGAGCT
DNA 2: CGAGCCATTTTTTAATTGCTTCCCAGA
B1: binds (His-PRH (wild type)); no binding (His-PRH N187A); no binding (His-PRH R188A,R189A). B1: binds (His-PRH F32E).
